Data set [1] has as its target T1, Saro_0803 (Novosphingobium aromaticivorans, UniProt Q2GA75).
T1 construct: His-tagged Saro_0803 (pET-30a(+)), full-length; homogeneous dimer in solution
T1 sequence (Q2GA75 1-157): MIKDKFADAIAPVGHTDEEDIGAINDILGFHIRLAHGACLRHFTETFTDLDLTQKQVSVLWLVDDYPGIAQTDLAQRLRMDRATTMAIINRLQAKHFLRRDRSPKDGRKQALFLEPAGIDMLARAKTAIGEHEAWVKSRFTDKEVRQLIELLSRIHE
Description: ITC (also SPR, Kd […]; EMSA shows inhibition of nov1p^[…]bp binding).

Data set [2] concerns the target T2, Saro_0803 (Novosphingobium aromaticivorans DSM …, UniProt Q2GA75 1-157).
T2 sequence: T1 sequence (Q2GA75 1-157)
Description: ITC; 5% DMSO; ITC: 50 mM Tris-HCl pH 8.0, 200 mM NaCl, 5% DMSO, 25 °C, 20 µM protein, 200 µM DNA; EMSA: 5.0 µM DNA (annealed in 50 mM Tris-HCl pH 8.0, 200 mM NaCl), 37 °C 30. The conditions noted are these: protein: recombinant; tags: His-tag (pET-30a(+), NdeI/XhoI); chain copies: 2. For orientation: ITC needs no label: the signal is the heat of the interaction.

The target in the next data set is T3, Saro_0803 A87R (Novosphingobium aromaticivorans DSM …, UniProt Q2GA75 1-157, A87R).
T3 sequence: T1 sequence (Q2GA75 1-157) with A87R
The data set is described as above. The conditions noted are these: protein: recombinant; tags: His-tag; chain copies: 2.

Another data set has as its target T4, Saro_0803 R108A (Novosphingobium aromaticivorans DSM …, UniProt Q2GA75 1-157, R108A).
T4 sequence: T1 sequence (Q2GA75 1-157) with R108A
The description is as above. The conditions noted are these: protein: recombinant; tags: His-tag; chain copies: 2.

Another data set addresses T5, Saro_0803 K109A (Novosphingobium aromaticivorans DSM …, UniProt Q2GA75 1-157, K109A).
T5 sequence: T1 sequence (Q2GA75 1-157) with K109A
Described as above. The conditions noted are these: protein: recombinant; tags: His-tag; chain copies: 2.

The next data set has as its target T6, Saro_0803 K109E (Novosphingobium aromaticivorans DSM …, UniProt Q2GA75 1-157, K109E).
T6 sequence: T1 sequence (Q2GA75 1-157) with K109E
The data set is described as above. The conditions noted are these: protein: recombinant; tags: His-tag; chain copies: 2.

The next data set has as its target T7, Saro_0803 R108D (Novosphingobium aromaticivorans DSM …, UniProt Q2GA75 1-157, R108D).
T7 sequence: T1 sequence (Q2GA75 1-157) with R108D
Described as above. The conditions noted are these: protein: recombinant; tags: His-tag; chain copies: 2.

In the next data set the target is T8, Saro_0803 K55A (Novosphingobium aromaticivorans DSM …, UniProt Q2GA75 1-157, K55A).
T8 sequence: T1 sequence (Q2GA75 1-157) with K55A
The description is as above. Conditions: protein: recombinant; tags: His-tag; chain copies: 2.

A further data set addresses T9, Saro_0803 F47A (Novosphingobium aromaticivorans DSM …, UniProt Q2GA75 1-157, F47A).
T9 sequence: T1 sequence (Q2GA75 1-157) with F47A
Description: ITC, EMSA; micromolar or submicromolar; ITC: 50 mM Tris-HCl pH 8.0, 200 mM NaCl, 5% DMSO, 25 °C, 20 µM protein, 200 µM DNA; EMSA: 5.0 µM DNA (annealed in 50 mM Tris-HCl pH 8.0, 200 mM NaCl), 37 °C 30. The conditions noted are these: protein: recombinant; tags: His-tag; chain copies: 2.

The target of the next data set is T10, Saro_0803 W61A (Novosphingobium aromaticivorans DSM …, UniProt Q2GA75 1-157, W61A).
T10 sequence: T1 sequence (Q2GA75 1-157) with W61A
The data set is described as above. Conditions: protein: recombinant; tags: His-tag; chain copies: 2.

The target of a further data set is T11, Saro_0803 F30A (Novosphingobium aromaticivorans DSM …, UniProt Q2GA75 1-157, F30A).
T11 sequence: T1 sequence (Q2GA75 1-157) with F30A
The description is as above. The conditions noted are these: protein: recombinant; tags: His-tag; chain copies: 2.

The target in the next data set is T12, Saro_0803 F43A (Novosphingobium aromaticivorans DSM …, UniProt Q2GA75 1-157, F43A).
T12 sequence: T1 sequence (Q2GA75 1-157) with F43A
The data set is described as above. The conditions noted are these: protein: recombinant; tags: His-tag; chain copies: 2.

The target of data set [3] is T2, Saro_0803. Description: EMSA; 10 µM protein; ITC: 50 mM Tris-HCl pH 8.0, 200 mM NaCl, 5% DMSO, 25 °C, 20 µM protein, 200 µM DNA; EMSA: 5.0 µM DNA (annealed in 50 mM Tris-HCl pH 8.0, 200 mM NaCl), 37 °C 30. The conditions noted are these: protein: recombinant; tags: His-tag (pET-30a(+), NdeI/XhoI); chain copies: 2.
The target of data set [4] is T2, Saro_0803. Description: EMSA; ITC: 50 mM Tris-HCl pH 8.0, 200 mM NaCl, 5% DMSO, 25 °C, 20 µM protein, 200 µM DNA; EMSA: 5.0 µM DNA (annealed in 50 mM Tris-HCl pH 8.0, 200 mM NaCl), 37 °C 30. The conditions noted are these: protein: recombinant; tags: His-tag (pET-30a(+), NdeI/XhoI); chain copies: 2. A general note: In EMSA bound probe runs differently from free probe, usually more slowly.

Data set [5] concerns the molecule itself. Description: AUC; sedimentation velocity, protein ~1.0 mg/mL, 40,000 rpm for 2 h at 4 °C, c(s) analysis with Sedfit.

The record followed here is paper PMC10046596, “Biophysical and Biochemical Characterization of the Binding of the MarR-like Transcriptional Regulator Saro_0803 to the nov1 Promotor and Its Inhibition by Resveratrol” (Biomolecules, 2023).

One may read the Kd as a measure of binding affinity in units of concentration. Usually stoichiometry N stands for a count of units in the complex or per binding partner.

Positions count from the first letter of the chain named.

Molecule `Oc1ccc(/C=C/c2cc(O)cc(O)c2)cc1` [resveratrol] yielded a Kd at Saro_0803 [1] of around 35.7 µM.

B1: nov1p22bp (dsDNA)
DNA 1: TAATTGTTAGCAATACATACAA
DNA 2: TTGTATGTATTGCTAACAATTA
As for B1, the Kd with Saro_0803 [2] is around 3.57 µM; in the data set with Saro_0803 A87R, around 1.16 µM. In addition, the binding result in the data set with Saro_0803 R108A was “no binding”; with Saro_0803 K109A it was “no binding”; with Saro_0803 K109E, “no binding”; with Saro_0803 R108D it was “no binding”; with Saro_0803 F47A it was “binds”; in the data set with Saro_0803 W61A, “binds”. Moreover, the binding result with Saro_0803 F30A and with Saro_0803 F43A was “binds” throughout. In addition, in the data set with Saro_0803 K55A, the binding signal is ~3 fold decrease in affinity vs WT.

B2: nov1p58bp with 15 bp 3' deletion (43 bp) (dsDNA)
DNA 1: CCAACGAATGCGCTTGTCTAATTGTTAGCAATACATACAATAT
DNA 2: ATATTGTATGTATTGCTAACAATTAGACAAGCGCATTCGTTGG
In the case of B2, in the data set with Saro_0803 [3], the binding result is “no binding”.

B3: 18-bp upstream fragment (dsDNA)
DNA 1: CCAACGAATGCGCTTGTC
DNA 2: GACAAGCGCATTCGTTGG
On to B3, for which, in the data set with Saro_0803 [4], the binding result is recorded as “no binding”.

B4: downstream neighboring fragment (dsDNA)
DNA 1: TATTGCAAGGAGGATGCC
DNA 2: GGCATCCTCCTTGCAATA
Turning to B4, in the data set with Saro_0803 [4], the binding result is “no binding”.

B5: Saro_0803, MarR-like transcriptional regulator of Novosphingobium aromaticivorans DSM 12444 (natural protein, UniProt Q2GA75 1-157, looked up)
chain: T1 sequence (Q2GA75 1-157)
notes: Transcriptional regulator Saro_0803 (MarR family), encoded by gene saro_0803 of Novosphingobium aromaticivorans DSM 12444; theoretical MW of the tagged protein around 18.75 kDa; called full-length in contrast to the truncation 21-157; Cloned into pET-30a(+) by Nde I/Xho I; No removal of the tag is described; also called polyhistidine-tagged Saro_0803; His-tagged Saro_0803; source: E. coli …
With B5, the “stoichiometry N” value in data set [5] was determined as 2.
